Source: patent US7345026

What was measured:
[1] = biological target: HLA-A2.1 molecules on T2 (TAP-, HLA-A2.1+) cells (human); test: T2 cells, peptide binding by surface HLA-A2.1 (BB7.2) flow cytometry; ratio of concentrations reaching 20% of maximal binding
[2] = biological target: HLA-A2.1 molecules on T2 (TAP-, HLA-A2.1+) cells (human); test: T2 cells, stabilisation assay, BB7.2 flow cytometry at 0, 2, 4, 6, 8 h

Tyrosinase 368-376-N epitopic peptide
RA (relative affinity) (ratio to HIV 1 rt.476 reference peptide) [1]: 2.2 | DC50 (half-life of peptide-HLA-A2.1 complexes) [2]: > 8 h
